Source: PMC12120020

Molecular target: XRCC4 (X-ray repair cross-complementing protein 4) (UniProt Q13426)
Assay: co-IP with anti-Flag M2 beads
Conditions: reference: Flag-AATF wild type, IR; sites S189

AATF (apoptosis antagonizing transcription factor) (from UniProt Q9NY61) Flag-AATF S189A, IR
binding against the reference: stronger
